Measurements: patent publication US20030148958A1 (PROCTER AND GAMBLE, published 2003)
Ends that are not written are not given here.

Target: CRF1R
Assay: cell-based or functional assay
Wherever CRF1R Emax % is given: reference of the scale not given here.
Wherever CRF2R Emax % is given: reference of the scale not given here.

| Binder | CRF1R EC50 [nM] | CRF1R Emax % [%] |
| --- | --- | --- |
| ZGPPISIDLPHQLLRKMIEIEKQEKEKQQAANNRLLLDTI (C-terminal amide) [SEQ ID NO 212] | 445 | 100 |
| ZGPPISIDLPTYLLRKMIEIEKQEKEKQQAANNALLLDTI (C-terminal amide) [SEQ ID NO 232] | 1000 | 7 |
| ZGPPISIDLPLHLLRKMIEIEKQEKEKQQAANNALLLDTI (C-terminal amide) [SEQ ID NO 240] | 915 | 80 |
| ZGPPISIDLPYFLLRKMIEIEKQEKEKQQAANNRLLLDTI (C-terminal amide) [SEQ ID NO 220] | 63.6 | 81 |
| ZGPPISIDLPIYLLRKMIEIEKQEKEKQQAANNALLLATI (C-terminal amide) [SEQ ID NO 237] | 1000 | 18 |
| ZGPPISIDLPFHLLRKMIEIEKQEKEKQQAANNALLLDTI (C-terminal amide) [SEQ ID NO 228] | 276 | 100 |
| ZGPPISIDLPYYLLRKMIEIEKQEKEKQQAANNALLLDTI (C-terminal amide) [SEQ ID NO 226] | 315 | 95 |
| ZGPPISIDLPLWLLRKMIEIEKQEKEKQQAANNRLLLDTI (C-terminal amide) [SEQ ID NO 218] | 98.4 | 100 |
| ZGPPISIDLPHFLLRKMIEIEKQEKEKQQAANNRLLLDTI (C-terminal amide) [SEQ ID NO 219] | 80.9 | 100 |
| ZGPPISIDLPLELLRKMIEIEKQEKEKQQAANNALLLATI (C-terminal amide) [SEQ ID NO 234] | 434 | 96 |
| ZGPPISIDLPAFLLRKMIEIEKQEKEKQQAANNRLLLDTI (C-terminal amide) [SEQ ID NO 222] | 384 | 95 |
| ZGPPISIDLPFYLLRKMIEIEKQEKEKQQAANNALLLDTI (C-terminal amide) [SEQ ID NO 230] | 219 | 100 |
| ZGPPISIDLPLHLLRKMIEIEKQEKEKQQAANNALLLATI (C-terminal amide) [SEQ ID NO 241] | 308 | 99 |
| ZGPPISIDLPQYLLRKMIEIEKQEKEKQQAANNALLLDTI (C-terminal amide) [SEQ ID NO 224] | 1000 | 27 |
| ZGPPISIDLPLELLRKMIEIEKQEKEKQQAANNALLLDTI (C-terminal amide) [SEQ ID NO 235] | 806 | 70 |
| ZGPPISIDLPQYLLRKMIEIEKQEKEKQQAANNALLLATI (C-terminal amide) [SEQ ID NO 227] | 918 | 18 |
| ZGPPISIDLPQFLLRKMIEIEKQEKEKQQAANNRLLLDTI (C-terminal amide) [SEQ ID NO 221] | 236 | 100 |
| ZGPPISIDLPTYLLRKMIEIEKQEKEKQQAANNALLLATI (C-terminal amide) [SEQ ID NO 233] | 1000 | 11 |
| ZGPPISIDLPIYLLRKMIEIEKQEKEKQQAANNALLLDTI (C-terminal amide) [SEQ ID NO 236] | 1000 | 15 |

| Binder | CRF1R EC50 [nM] | CRF1R Emax % [%] |
| --- | --- | --- |
| ZGPPISIDLPFFLLRKMIEIEKQEKEKQQAANNRLLLDTI (C-terminal amide) [SEQ ID NO 223] | 48.1 | 81 |
| ZGPPISIDLPYYLLRKMIEIEKQEKEKQQAANNALLLATI (C-terminal amide) [SEQ ID NO 225] | 220 | 97 |
| ZGPPISIDLPQWLLRKMIEIEKQEKEKQQAANNRLLLDTI (C-terminal amide) [SEQ ID NO 213] | 1000 | 76 |
| ZGPPISIDLPWWLLRKMIEIEKQEKEKQQAANNRLLLDTI (C-terminal amide) [SEQ ID NO 216] | 49.8 | 98 |
| ZGPPISIDLPYWLLRKMIEIEKQEKEKQQAANNRLLLDTI (C-terminal amide) [SEQ ID NO 215] | 188 | 100 |
| ZGPPISIDLPFWLLRKMIEIEKQEKEKQQAANNRLLLDTI (C-terminal amide) [SEQ ID NO 217] | 94.7 | 100 |
| DNPSLSIDVPLYLLRTLLELEKTQSQRERAEQNARIFARV-NH2 [SEQ ID NO 387] | 1000 | 50.1 |
| DNPSLSIDVPLLLLRTLLELEKTQSQRERAEQNARIFARV-NH2 [SEQ ID NO 384] | 1000 | 70.3 |
| ZGPPISIDLPLHLLRKMIEIEKQEKEKQQATTNARLLDTV (C-terminal amide) [SEQ ID NO 238] | 753 | 88 |
| ZGPPISIDLPLYLLRKMIEIEKQEKEKQQATTNARLLDRV (C-terminal amide) [SEQ ID NO 243] | 440 | 96 |
| ZGPPISIDLPLYLLRKMIEIEKQEKEKQQATTNARLLDTV (C-terminal amide) [SEQ ID NO 242] | 358 | 99 |
| ZGPPISIDLPLHLLRKMIEIEKQEKEKQQATTNARLLDRV (C-terminal amide) [SEQ ID NO 239] | 587 | 80 |
| IVLSLDVVIGLLQILLEQARARAAREQATTNARILARV-NH2 [SEQ ID NO 214] | 100 | 4 |
| DNPSLSIDVPFFLLRTLLELEKTQSQRERAEQNARIFARV-NH2 [SEQ ID NO 386] | 1000 | 78.2 |
| ZGPPISIDVPFQLLRKVIEIEKQEKEKQQAANNARLLARI (C-terminal amide) [SEQ ID NO 383] | 1000 | 55 |
| ZGPPISIDLPFYLLRKMIEIEKQEKEKQQAANNALLLATI (C-terminal amide) [SEQ ID NO 231] | 94 | 100 |
| ZGPPISIDLPFHLLRKMIEIEKQEKEKQQAANNALLLATI (C-terminal amide) [SEQ ID NO 229] | 298 | 100 |
| DNPSLSIDVPLFLLRTLLELEKTQSQRERAEQNARIFARV-NH2 [SEQ ID NO 385] | 1000 | 46 |

Target: T1, CRF2R
T1 sequence (Q13324 whole entry, species assumed, looked up): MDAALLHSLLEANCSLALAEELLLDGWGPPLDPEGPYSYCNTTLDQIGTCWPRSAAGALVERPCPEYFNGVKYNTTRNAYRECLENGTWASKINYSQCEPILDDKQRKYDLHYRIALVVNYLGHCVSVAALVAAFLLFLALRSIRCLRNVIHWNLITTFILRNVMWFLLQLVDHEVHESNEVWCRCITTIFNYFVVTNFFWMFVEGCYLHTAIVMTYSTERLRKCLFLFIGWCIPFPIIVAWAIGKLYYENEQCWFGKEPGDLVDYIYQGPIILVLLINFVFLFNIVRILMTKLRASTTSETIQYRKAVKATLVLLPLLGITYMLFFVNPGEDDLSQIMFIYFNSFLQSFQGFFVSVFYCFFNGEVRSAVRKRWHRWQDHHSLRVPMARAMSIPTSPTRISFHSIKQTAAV
Assay: cell-based or functional assay

| Binder | CRF2R EC50 [nM] | CRF2R Emax % [%] |
| --- | --- | --- |
| ZGPPISIDLPHQLLRKMIEIEKQEKEKQQAANNRLLLDTI (C-terminal amide) [SEQ ID NO 212] | 21.3 | 100 |
| ZGPPISIDLPTYLLRKMIEIEKQEKEKQQAANNALLLDTI (C-terminal amide) [SEQ ID NO 232] | 45.3 | 100 |
| ZGPPISIDLPLHLLRKMIEIEKQEKEKQQAANNALLLDTI (C-terminal amide) [SEQ ID NO 240] | 22 | 100 |
| ZGPPISIDLPYFLLRKMIEIEKQEKEKQQAANNRLLLDTI (C-terminal amide) [SEQ ID NO 220] | 4.1 | 98 |
| ZGPPISIDLPIYLLRKMIEIEKQEKEKQQAANNALLLATI (C-terminal amide) [SEQ ID NO 237] | 22.2 | 93 |
| ZGPPISIDLPFHLLRKMIEIEKQEKEKQQAANNALLLDTI (C-terminal amide) [SEQ ID NO 228] | 7.1 | 100 |
| ZGPPISIDLPYYLLRKMIEIEKQEKEKQQAANNALLLDTI (C-terminal amide) [SEQ ID NO 226] | 7.6 | 100 |
| ZGPPISIDLPLWLLRKMIEIEKQEKEKQQAANNRLLLDTI (C-terminal amide) [SEQ ID NO 218] | 4.8 | 96 |
| ZGPPISIDLPHFLLRKMIEIEKQEKEKQQAANNRLLLDTI (C-terminal amide) [SEQ ID NO 219] | 7.8 | 98 |
| ZGPPISIDLPLELLRKMIEIEKQEKEKQQAANNALLLATI (C-terminal amide) [SEQ ID NO 234] | 20.6 | 100 |
| ZGPPISIDLPAFLLRKMIEIEKQEKEKQQAANNRLLLDTI (C-terminal amide) [SEQ ID NO 222] | 9.4 | 100 |
| ZGPPISIDLPFYLLRKMIEIEKQEKEKQQAANNALLLDTI (C-terminal amide) [SEQ ID NO 230] | 8.1 | 100 |
| ZGPPISIDLPLHLLRKMIEIEKQEKEKQQAANNALLLATI (C-terminal amide) [SEQ ID NO 241] | 12.6 | 99 |
| ZGPPISIDLPQYLLRKMIEIEKQEKEKQQAANNALLLDTI (C-terminal amide) [SEQ ID NO 224] | 26.9 | 100 |
| ZGPPISIDLPLELLRKMIEIEKQEKEKQQAANNALLLDTI (C-terminal amide) [SEQ ID NO 235] | 25.7 | 100 |
| ZGPPISIDLPQYLLRKMIEIEKQEKEKQQAANNALLLATI (C-terminal amide) [SEQ ID NO 227] | 33.6 | 95 |
| ZGPPISIDLPQFLLRKMIEIEKQEKEKQQAANNRLLLDTI (C-terminal amide) [SEQ ID NO 221] | 8.5 | 100 |
| ZGPPISIDLPTYLLRKMIEIEKQEKEKQQAANNALLLATI (C-terminal amide) [SEQ ID NO 233] | 46.1 | 95 |
| ZGPPISIDLPIYLLRKMIEIEKQEKEKQQAANNALLLDTI (C-terminal amide) [SEQ ID NO 236] | 40.4 | 97 |

| Binder | CRF2R EC50 [nM] | CRF2R Emax % [%] |
| --- | --- | --- |
| ZGPPISIDLPFFLLRKMIEIEKQEKEKQQAANNRLLLDTI (C-terminal amide) [SEQ ID NO 223] | 3 | 92 |
| ZGPPISIDLPYYLLRKMIEIEKQEKEKQQAANNALLLATI (C-terminal amide) [SEQ ID NO 225] | 4.8 | 89 |
| ZGPPISIDLPQWLLRKMIEIEKQEKEKQQAANNRLLLDTI (C-terminal amide) [SEQ ID NO 213] | 22.3 | 99 |
| ZGPPISIDLPWWLLRKMIEIEKQEKEKQQAANNRLLLDTI (C-terminal amide) [SEQ ID NO 216] | 9.9 | 90 |
| ZGPPISIDLPYWLLRKMIEIEKQEKEKQQAANNRLLLDTI (C-terminal amide) [SEQ ID NO 215] | 4 | 100 |
| ZGPPISIDLPFWLLRKMIEIEKQEKEKQQAANNRLLLDTI (C-terminal amide) [SEQ ID NO 217] | 4.7 | 95 |
| DNPSLSIDVPLYLLRTLLELEKTQSQRERAEQNARIFARV-NH2 [SEQ ID NO 387] | 17.9 | 100 |
| DNPSLSIDVPLLLLRTLLELEKTQSQRERAEQNARIFARV-NH2 [SEQ ID NO 384] | 7.1 | 97.3 |
| ZGPPISIDLPLHLLRKMIEIEKQEKEKQQATTNARLLDTV (C-terminal amide) [SEQ ID NO 238] | 16.7 | 100 |
| ZGPPISIDLPLYLLRKMIEIEKQEKEKQQATTNARLLDRV (C-terminal amide) [SEQ ID NO 243] | 16.8 | 100 |
| ZGPPISIDLPLYLLRKMIEIEKQEKEKQQATTNARLLDTV (C-terminal amide) [SEQ ID NO 242] | 29 | 94 |
| ZGPPISIDLPLHLLRKMIEIEKQEKEKQQATTNARLLDRV (C-terminal amide) [SEQ ID NO 239] | 13.2 | 100 |
| IVLSLDVVIGLLQILLEQARARAAREQATTNARILARV-NH2 [SEQ ID NO 214] | 74.3 | 60 |
| DNPSLSIDVPFFLLRTLLELEKTQSQRERAEQNARIFARV-NH2 [SEQ ID NO 386] | 8.7 | 96 |
| ZGPPISIDVPFQLLRKVIEIEKQEKEKQQAANNARLLARI (C-terminal amide) [SEQ ID NO 383] | 9.31 | 96 |
| ZGPPISIDLPFYLLRKMIEIEKQEKEKQQAANNALLLATI (C-terminal amide) [SEQ ID NO 231] | 5.9 | 100 |
| ZGPPISIDLPFHLLRKMIEIEKQEKEKQQAANNALLLATI (C-terminal amide) [SEQ ID NO 229] | 10.3 | 100 |
| DNPSLSIDVPLFLLRTLLELEKTQSQRERAEQNARIFARV-NH2 [SEQ ID NO 385] | 10.2 | 100 |
